From patent US20030092616A1, “STAT6 activation gene” (priority 2001, published 2003)

B1: 89 (nucleic acid, listed as Homo sapiens)
chain: GTAGTGCGGCGCTGTTTAAAGATGGCGGCGGAGGAACCTCAGCAGCAGAAGCAGGAGCCGCTGGGCAGCGACTCCGAAGGTGTTAACTGTCTGGCCTATGATGAAGCCATCATGGCTCAGCAGGACCGAATTCAGCAAGAGATTGCTGTGCAGAACCCTCTGGTGTCAGAGCGGCTGGAGCTCTCGGTCCTATACAAGGAGTATGCTGAAGATGACAACATCTATCAACAGAAGATCAAGGACCTCCACAAAAAGTACTCGTACATCCGCAAGACCAGGCCTGACGGCAACTGTTTCTATCGGGCTTTCGGATTCTCCCACTTGGAGGCACTGCTGGATGACAGCAAGGAGTTGCAGCGGTTCAAGGCTGTGTCTGCCAAGAGCAAGGAAGACCTGGTGTCCCAGGGCTTCACTGAATTCACAATTGAGGATTTCCACAACACGTTCATGGACCTGATTGAGCAGGTGGAGAAGCAGACCTCTGTCGCCGACCTGCTGGCCTCCTTCAATGACCAGAGCACCTCCGACTACCTTGTGGTCTACCTGCGGCTGCTCACCTCGGGCTACCTGCAGCGCGAGAGCAAGTTCTTCGAGCACTTCATCGAGGGTGGACGGACTGTCAAGGAGTTCTGCCAGCAGGAGGTGGAGCCCATGTGCAAGGAGAGCGACCACATCCACATCATTGCGCTGGCCCAGGCCCTCAGCGTATCCATCCAGGTGGAGTACATGGACCGCGGCGAGGGCGGCACCACCAATCCGCACATCTTCCCTGAGGGCTCCGAGCCCAAGGTCTACCTTCTCTACCGGCCTGGACACTACGATATCCTCTACAAATAGGGCTGGCTCCAGCCCGCTGCTGCCCTGCTGCCCCCCTCTGCCAGGCGCTAGACATGTACAGAGGTTTTTCTGTGGTTGTAAATGGTCCTATTTCACCCCCTTCTTCCTGTCACATGACCCCCCCCCATGTTTTATTAAAGGGGGTGCTGGTGGTG
modifications: CDS (22)..(834)
B2: 345 (nucleic acid, listed as Homo sapiens)
chain: CCAGCCAACGAGCGGAAAATGGCAGACAATTTTTCGCTCCATGATGCGTTATCTGGGTCTGGAAACCCAAACCCTCAAGGATGGCCTGGCGCATGGGGGAACCAGCCTGCTGGGGCAGGGGGCTACCCAGGGGCTTCCTATCCTGGGGCCTACCCCGGGCAGGCACCCCCAGGGGCTTATCCTGGACAGGCACCTCCAGGCGCCTACCATGGAGCACCTGGAGCTTATCCCGGAGCACCTGCACCTGGAGTCTACCCAGGGCCACCCAGCGGCCCTGGGGCCTACCCATCTTCTGGACAGCCAAGTGCCCCCGGAGCCTACCCTGCCACTGGCCCCTATGGCGCCCCTGCTGGGCCACTGATTGTGCCTTATAACCTGCCTTTGCCTGGGGGAGTGGTGCCTCGCATGCTGATAACAATTCTGGGCACGGTGAAGCCCAATGCAAACAGAATTGCTTTAGATTTCCAAAGAGGGAATGATGTTGCCTTCCACTTTAACCCACGCTTCAATGAGAACAACAGGAGAGTCATTGTTTGCAATACAAAGCTGGATAATAACTGGGGAAGGGAAGAAAGACAGTCGGTTTTCCCATTTGAAAGTGGGAAACCATTCAAAATACAAGTACTGGTTGAACCTGACCACTTCAAGGTTGCAGTGAATGATGCTCACTTGTTGCAGTACAATCATCGGGTTAAAAAACTCAATGAAATCAGCAAACTGGGAATTTCTGGTGACATAGACCTCACCAGTGCTTCATATACCATGATATAATCTGAAAGGGGCAGATTAAAAAAAAAAAAAAAGAATCTAAACCTTACATGTGTAAAGGTTTCATGTTCACTGTGAGTGAAAATTTTTACATTCATCAATATCCCTCTTGTAAGTCATCTACTTAATAAATATTACAGTGAAAG
modifications: CDS (19)..(768)
B3: 85 (nucleic acid, listed as Homo sapiens)
chain: ATTTCCGGTTCCGGCTGCGGGCCGGTGAAGATATGGCGGCGTCTGCGTCTGCAGCTGCAGGGGAGGAGGACTGGGTCCTTCCCTCTGAAGTTGAAGTATTGGAGTCCATCTATCTAGATGAACTACAGGTGATTAAAGGAAATGGCAGAACTTCACCATGGGAGATCTACATCACTTTGCATCCTGCCACTGCAGAGGACCAGGATTCACAGTATGTCTGCTTCACTCTGGTGCTTCAGGTCCCAGCAGAGTATCCCCATGAGGTGCCACAGATCTCTATCCGAAATCCCCGAGGACTTTCAGATGAACAGATCCACACGATCTTACAGGTGCTGGGCCACGTGGCCAAGGCTGGGCTGGGCACTGCCATGCTGTATGAACTCATTGAGAAAGGGAAGGAAATTCTCACAGATAACAACATCCCTCATGGCCAGTGTGTCATCTGCCTCTATGGTTTCCAGGAGAAGGAGGCCTTTACCAAAACACCCTGTTACCACTACTTCCACTGCCACTGCCTTGCTCGGTACATCCAGCACATGGAGCAAGAGCTGAAGGCACAAGGACAGGAGCAGGAACAGGAACGGCAGCATGCTACAACCAAACAGAAGGCAGTCGGTGTGCAGTGTCCAGTGTGCAGAGAGCCCCTCGTGTATGATCTTGCCTCACTGAAAGCAGCCCCTGAACCCCAACAGCCCATGGAGCTGTACCAGCCCAGTGCAGAGAGCTTGCGCCAGCAAGAAGAACGCAAGCGGCTCTACCAGAGGCAGCAGGAGCGGGGGGGAATCATTGACCTTGAGGCTGAGCGAAACCGATACTTCATCAGCCTTCAGCAGCCTCCTGCCCCTGCGGAACCTGAGTCAGCTGTAGATGTCTCCAAAGGATCCCAACCACCCAGCACCCTTGCAGCAGAACTATCCACCTCACCAGCCGTCCAATCCACTTTGCCACCTCCTCTGCCTGTGGCGACCCAGCACATATGTGAGAAGATTCCAGGGACCAGGTCAAATCAGCAAAGGTTGGGCGAAACCCAGAAAGCTATGCTAGATCCCCCCAAGCCCAGTCGAGGTCCCTGGCGACAGCCCGAACGGAGGCACCCAAAGGGAGGGGAGTGCCACGCCCCTAAAGGTACCCGTGACACCCAGGAACTGCCACCTCCTGAGGGGCCCCTCAAGGAGCCCATGGACCTAAAGCCAGAACCCCATAGCCAAGGAGTTGAAGGTCCTCCACAAGAGAAGGGGCCTGGCAGCTGGCAGGGGCCCCCACCCCGCAGGACTCGGGACTGTGTTCGCTGGGAGCGCTCTAAGGGCCGGACACCCGGTTCTTCCTACCCTCGCCTGCCTCGGGGCCAGGGAGCATACCGGCCTGGTACTCGGAGGGAGTCCCTGGGCCTGGAATCTAAGGATGGTTCCTAGCAGGACTTGGTGGGGGGAACAGGGAATTGGGGATGGGAGGGAGGCAATAAAGATATTTGGCCTTCTTTGGCTTTCTTTGCTT
modifications: CDS (33)..(1409)
B4: 295 (nucleic acid, listed as Homo sapiens)
chain: ACTCGTGCGTGAGGCGAGAGGAGCCGGAGACGAGACCAGAGGCCGAACTCGGGTTCTGACAAGATGGCCGGGCTGCCCCGCAGGATCATCAAGGAAACCCAGCGTTTGCTGGCAGAACCAGTTCCTGGCATCAAAGCCGAACCAGATGAGAGCAACGCCCGTTATTTTCATGTGGTCATTGCTGGCCCTCAGGATTCCCCCTTTGAGGGAGGGACTTTTAAACTTGAACTATTCCTTCCAGAAGAATACCCAATGGCAGCCCCTAAAGTACGTTTCATGACCAAAATTTATCATCCTAATGTAGACAAGTTGGGAAGAATATGTTTAGATATTTTGAAAGATAAGTGGTCCCCAGCACTGCAGATCCGCACAGTTCTGCTATCGATCCAGGCCTTGTTAAGTGCTCCCAATCCAGATGATCCATTAGCAAATGATGTAGCGGAGCAGTGGAAGACCAACGAAGCCCAAGCCATAGAAACAGCTAGAGCATGGACTAGGCTATATGCCATGAATAATATTTAAATTGATACGATCATCAAGTGTGCATCACTTCTCCTGTTCTGCCAAGACTTCCTCCTCTTTGTTTGCATTTAATGGACACAGTCTTAGAAACATTACAGAATAAAAAAGCCCAGACATCTTCAGTCCTTTGGTGATTAAATGCACATTAGCAAATCTATGTCTTGTCCTGATTCACTGTCATAAAGCATGAGCAGAGGCTAGAAGTATCATCTGGATTGTTGTGAAACGTTTAAAAGCAGTGGCCCCTCCCTGCTTTTATTCATTTCCCCCATCCTGGTTTAAGTATAAAGCACTGTGAATGAAGGTAGTTGTCAGGTTAGCTGCAGGGGTGTGGGTGTTTTTATTTTATTTTATTTTATTTTATTTTTGAGGGGGGAGGTAGTTTAATTTTATGGGCTCCTTTCCCCCTTTTTTGGTGATCTAATTGCATTGGTTAAAAGCAGCTAACCAGGTCTTTAGAATATGCTCTAGCCAAGTCTAACTTTATTTAGACGCTGTAGATGGACAAGCTTGATTGTTGGAACCAAAATGGGAACATTAAACAAACATCACAGCCCTCACTAATAACATTGCTGTCAAGTGTAGATTCCCCCCTTCAAAAAAAGCTTGTGACCATTTTGTATGGCTTGTCTGGAAACTTCTGTAAATCTTATGTTTTAGTAAAATATTTTTTGTTATTCT
modifications: CDS (64)..(519)
B5: 327 (nucleic acid, listed as Homo sapiens)
chain: TGTCGACGCCGCTGCCACCGCCTGCCTGAGAGAAGTCGTCGCGGCCGACCCCGTCGCCTCCGCCGGCTACCATGTCCGCCCAGGCGCAGATGCGGGCCCTGCTGGACCAGCTCATGGGCACGGCTCGGGACGGAGACGAAACCAGACAAAGGGTCAAGTTTACAGATGACCGTGTCTGCAAGAGTCACCTTCTGGACTGCTGCCCCCATGACATCCTGGCTGGGACGCGCATGGATTTAGGAGAATGTACCAAAATCCACGACTTGGCCCTCCGAGCAGATTATGAGATTGCAAGTAAAGAAAGAGACCTGTTTTTTGAATTAGATGCAATGGATCACTTGGAGTCCTTTATTGCTGAATGTGATCGGAGAACTGAGCTCGCCAAGAAGCGGCTGGCAGAAACACAGGAGGAAATCAGTGCGGAAGTTTCTGCAAAGGCAGAAAAAGTACATGAGTTAAATGAAGAAATAGGAAAACTCCTTGCTAAAGCCGAACAGCTAGGGGCTGAAGGTAATGTGGATGAATCCCAGAAGATTCTTATGGAAGTGGAAAAAGTTCGTGCGAAGAAAAAAGAAGCTGAGGAAGAATACAGAAATTCCATGCCTGCATCCAGTTTTCAGCAGCAAAAGCTGCGTGTCTGCGAGGTCTGTTCAGCCTACCTTGGTCTCCATGACAATGACCGTCGCCTGGCAGACCACTTCGGTGGCAAGTTACACTTGGGGTTCATTCAGATCCGAGAGAAGCTTGATCAGTTGAGGAAAACTGTCGCTGAAAAGCAGGAGAAGAGAAATCAGGATCGCTTGAGGAGGAGAGAGGAGAGGGAACGGGAGGAGCGTCTGAGCAGGAGGTCGGGATCAAGAACCAGAGATCGCAGGAGGTCACGCTCCCGGGATCGGCGTCGGAGGCGGTCAAGATCTACCTCCCGAGAGCGACGGAAATTGTCCCGGTCCCGGTCCCGAGATAGACATCGGCGCCACCGCAGCCGTTCCCGGAGCCACAGCCGGGGACATCGTCGGGCTTCCCGGGACCGAAGTGCGAAATACAAGTAACTACTCTGACTCCTTCGGTAGCTGCAACCAGGGGTTCTCCAGAGAGCGGGCATCCAGAGAGGAGTCCTGGGAGAGCGGGCGGAGCGAGCGAGGGCCCCCGGACTGGAGGCTTGAGAGCTCCAACGGGAAGATGGCTTCACGGAGGTCAGAAGAGAAGGAGGCCGGCGAGATCTGAACCCGTCTCCCGGGTGCTGTAAATAGTCTGATAAACGTTCACACAGTCTAAAATTACCCTTTATATTTGCTGAATACAACTCATCTTTTGTAGTTTAAAATTTCTATTGTTTTGGAGCTAGCTGTGAGTTTCTAGAAGTGTACAGAGTTGCTCCTGTGTTCCCGGGTCATGTTGAGTAGGAATAAATAAATCTGATGCTGCCTCCTGAGGCTGCGGGGGGTTTCTGC
modifications: CDS (72)..(1046)

System: STAT6
Experiment: Screening of full-length cDNA clones for promotion of STAT6 activation (luciferase reporter N4×8-luc)
Format: cell-based
Settings: NIH3T3 cells cotransfected with N4×8-luc reporter and cDNA plasmid; 48 h culture, then mouse IL-4 0.5 ng/ml for 6 h
Method in brief: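 Promotion of STAT6 activation scored as increase in luciferase signal over null-vector control cells. NIH3T3 cells carried N4×8-luc (100 ng) plus cDNA clone; after 48 h culture, 6 h stimulation with 0.5 ng/ml (final) mouse IL-4 preceded reading.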

Compared with B1, B2 is lower in “Activity = (luciferase activity of the gene of each SEQ ID NO:)/(luciferase activity of pME18S-FL3)” value: 10.2 for the first, 3.7 for the second.

Compared with B3, B4 is higher in “Activity = (luciferase activity of the gene of each SEQ ID NO:)/(luciferase activity of pME18S-FL3)” value: 11.5 for the first, 31.0 for the second.

B5 was tested, and the “Activity = (luciferase activity of the gene of each SEQ ID NO:)/(luciferase activity of pME18S-FL3)” value was 5.3.
